Results on two molecules are retold here after paper PMC8833184.

Substitutions are numbered along the chain they refer to.

The target of data set [1] is T1, SF3A1-UBL WT (human, UniProt Q15459 704-793).
T1 sequence: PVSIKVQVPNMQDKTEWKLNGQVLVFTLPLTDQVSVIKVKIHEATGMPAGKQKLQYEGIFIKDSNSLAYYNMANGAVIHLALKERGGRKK
As to the kind of experiment: NMR.

The target of another data set is T2, SF3A1-UBL K754A (human, UniProt Q15459 704-793, K754A).
T2 sequence: T1 sequence with K51A
The data set is described as follows: SPR. (Surface plasmon resonance follows binding to a sensor surface in real time, without labels.)

In a further data set the target is T3, SF3A1-UBL K717A (human, UniProt Q15459 704-793, K717A).
T3 sequence: T1 sequence with K14A
As to the kind of experiment: SPR.

The next data set concerns the target T4, SF3A1-UBL G790I (human, UniProt Q15459 704-793, G790I).
T4 sequence: T1 sequence with G87I
As to the kind of experiment: SPR.

In data set [2] the target is T1, SF3A1-UBL WT. As to the kind of experiment: SPR.
A further data set has as its target T5, SF3A1-UBL F763A (human, UniProt Q15459 704-793, F763A).
T5 sequence: T1 sequence with F60A
As to the kind of experiment: SPR.

The target of a further data set is T6, SF3A1-UBL G789I (human, UniProt Q15459 704-793, G789I).
T6 sequence: T1 sequence with G86I
As to the kind of experiment: SPR.

The target in the next data set is T7, SF3A1-UBL R791A (human, UniProt Q15459 704-793, R791A).
T7 sequence: T1 sequence with R88A
As to the kind of experiment: SPR.

A further data set has as its target T8, SF3A1-UBL K765A (human, UniProt Q15459 704-793, K765A).
T8 sequence: T1 sequence with K62A
The data set is described as follows: SPR.

For GGGACUGCGUUCGCGCUUUCCC (structured_RNA) [22 nt U1-SL4], the binding result in the data set with SF3A1-UBL WT [1] is reported as “binds”.
Regarding GGGGACUGCGUUCGCGCUUUCCCC (structured_RNA) [Biotin-U1-SL4-WT], the Kd (in general, the concentration at which binding is half-saturated) with SF3A1-UBL K754A is 16.7 ± 4.38 µM; in the data set with SF3A1-UBL K717A, 1.59 ± 0.27 µM; in the data set with SF3A1-UBL G790I, 14.1 ± 3.12 µM; in the data set with SF3A1-UBL WT [2] it was 0.332 ± 0.03 µM; with SF3A1-UBL F763A, 2.76 ± 0.3 µM; with SF3A1-UBL G789I it was 41.9 ± 5.7 µM. The Kd is 5.97 ± 0.5 µM in the data set with SF3A1-UBL R791A and 7.89 ± 0.71 µM with SF3A1-UBL K765A.
